In PMC11976344 one finds IC50 of inhibition of CCL8-induced THP1 cell migration and IC50 of inhibition of CCL8-driven THP-1 cell migration (dose-response peptide titration) data, which are given here for two molecules.

Assay [1] concerns the target CCL8 (UniProt P80075).
The target of assay [2] is CCL8 (UniProt P80075). The source holds these as a separate data set.

Ends that are not written are not given here.

Sequence of UniProt P80075 (P80075 24-99): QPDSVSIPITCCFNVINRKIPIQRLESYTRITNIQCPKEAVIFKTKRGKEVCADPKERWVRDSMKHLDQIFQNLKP

For Evasin P672 (natural protein), in assay [1], the IC50 of inhibition of CCL8-induced THP1 cell migration fell in the range of 4.6 to 10 nM.

B1: BK1.3 (17-mer synthetic dimeric peptide derived from Evasin P672) (peptide)
peptide: YEDEDYEDFFKPVTCYF
modifications: also: dimer via disulfide between the Cys of the two copies
In assay [2], B1 came in with an IC50 of inhibition of CCL8-driven THP-1 cell migration (dose-response peptide titration) of 4.2 nM.
